According to patent publication US20220000984A1 (JIANGSU GENSCIENCES, published 2022):

B1: GLP1-L1-Fc2-L2-ST crosslinked with 20 kDa PEG (Fc fusion)
chain: HGEGTFTSDVSSYLEEQAAKEFIAWLVKGGGGGGGSGGGGSGGGGSAVECPPCPAPPVAGPSVFLFPPKPKDTLMISRTPEVTCVVVDVSHEDPEVQFNWYVDGVEVHNAKTKPREEQFNSTFRVVSVLTVVHQDWLNGKEYKCKVSNKGLPAPIEKTISKTKGQPREPQVYTLPPSREEMTKNQVSLTCLVKGFYPSDIAVEWESNGQPENNYKTTPPMLDSDGSFFLYSKLTVDKSRWQQGNVFSCSVMHEALHNHYTQKSLSLSPGGSGGGSGGGGSGGGGSLPETGGGAA
modifications: 20 kDa PEG on the added C-terminal GGGAA (GGGAA-PEG joined by sortase A to the T of LPET)
B2: GLP1-L1-Fc2-L2-ST crosslinked with 40 kDa PEG (Fc fusion)
chain: HGEGTFTSDVSSYLEEQAAKEFIAWLVKGGGGGGGSGGGGSGGGGSAVECPPCPAPPVAGPSVFLFPPKPKDTLMISRTPEVTCVVVDVSHEDPEVQFNWYVDGVEVHNAKTKPREEQFNSTFRVVSVLTVVHQDWLNGKEYKCKVSNKGLPAPIEKTISKTKGQPREPQVYTLPPSREEMTKNQVSLTCLVKGFYPSDIAVEWESNGQPENNYKTTPPMLDSDGSFFLYSKLTVDKSRWQQGNVFSCSVMHEALHNHYTQKSLSLSPGGSGGGSGGGGSGGGGSLPETGGGAA
modifications: 40 kDa PEG on the added C-terminal GGGAA (GGGAA-PEG joined by sortase A to the T of LPET)
B3: GLP1-L1-Fc2-L2-ST (Fc fusion)
chain: HGEGTFTSDVSSYLEEQAAKEFIAWLVKGGGGGGGSGGGGSGGGGSAVECPPCPAPPVAGPSVFLFPPKPKDTLMISRTPEVTCVVVDVSHEDPEVQFNWYVDGVEVHNAKTKPREEQFNSTFRVVSVLTVVHQDWLNGKEYKCKVSNKGLPAPIEKTISKTKGQPREPQVYTLPPSREEMTKNQVSLTCLVKGFYPSDIAVEWESNGQPENNYKTTPPMLDSDGSFFLYSKLTVDKSRWQQGNVFSCSVMHEALHNHYTQKSLSLSPGGSGGGSGGGGSGGGGSLPETG

target: GLP-1 receptor (GLP-1R) on HEK293/CRE-Luc/GLP1R cells (UniProt P43220 24-463, limits assumed); assay: cell-based or functional assay

B1 was tested. Which “relative activity compared with dulaglutide (CRE-luciferase reporter, HEK293/CRE-Luc/GLP1R cells)” value did it give?
The value was 40.4%.

With B2 as the binder, how does the “relative activity compared with dulaglutide (CRE-luciferase reporter, HEK293/CRE-Luc/GLP1R cells)” value read?
Its value is 32.9%.

With B3 as the binder, how does the “relative activity compared with dulaglutide (CRE-luciferase reporter, HEK293/CRE-Luc/GLP1R cells)” value read?
Its value is 98.1%.
